For 21 molecules, average phenotype and Lable results are on record in US20250032576A1, “CNP Therapy” (BIOMARIN PHARMACEUTICAL INC., priority 2021, published 2025).

Residue numbers refer to the chain shown, from its start. Where “and” joins values, the source holds several entries; their conditions need not be identical. Identical values can stand only once.

This assay concerns NPR2. Put plainly: cGMP catchpoint assay of NPR2 variants in transfected HEK293 cells treated with 20 nM CNP. The class given is cell-based. More on the design: key to Lable: loss-of-function (LoF); Gain-of-function (GoF). As to conditions: for average phenotype: cGMP normalized to RedLuciferase and to WT = 1, HEK293, 20 nM CNP, 0.4 nM IBMX, at least 3 repeat experiments with 4 replicates each; for Lable: high-confidence variant class. Here is the method:
Described herein is an in-vitro assay (cGMP) to assess the activities of >260 NPR2 variants. NPR2 protein-altering variants have been identified in the UK Biobank study and described in Estrada et al. (Nat Commun. 2021 12 (1): 2224). NPR2-expression constructs were transfected into HEK293 cells and 3 days later cells were treated with […] IBMX and 20 nM CNP in serum-free DMEM prior to measuring cGMP levels. The cGMP catchpoint ELISA competition assay (Molecular Devices) was used to measure cGMP according to manufacturer recommendations. RedLuc was used as a transfection control (FIG. 8A).
The NPR2 alpha-fold structure was obtained from a recent alpha-fold publication (Jumper et al., Nature 596:583-589 (2021)). A list of phenotypically characterized “high-confidence” variants was generated (Table 4). Phenotype is calculated by determining levels of cGMP using a standard curve. This value to normalized to RedLuciferase (transfection control). This value is further normalized by setting WT to 1. Average value is calculated from at least 3 repeat experiments with 4 replicates each.

B1: Arg957Cys: NPR2 protein-altering variant, expression construct transfected into HEK293 cells (protein)
chain: RNLTLAVVLPEHNLSYAWAWPRVGPAVALAVEALGRALPVDLRFVSSELEGACSEYLAPLSAVDLKLYHDPDLLLGPGCVYPAASVARFASHWRLPLLTAGAVASGFSAKNDHYRTLVRTGPSAPKLGEFVVTLHGHFNWTARAALLYLDARTDDRPHYFTIEGVFEALQGSNLSVQHQVYAREPGGPEQATHFIRANGRIVYICGPLEMLHEILLQAQRENLTNGDYVFFYLDVFGESLRAGPTRATGRPWQDNRTREQAQALREAFQTVLVITYREPPNPEYQEFQNRLLIRAREDFGVELGPSLMNLIAGCFYDGILLYAEVLNETIQEGGTREDGLRIVEKMQGRRYHGVTGLVVMDKNNDRETDFVLWAMGDLDSGDFQPAAHYSGAEKQIWWTGRPIPWVKGAPPSDNPPCAFDLDDPSCDKTPLSTLAIVALGTGITFIMFGVSSFLIFRKLMLEKELASMLWRIRWEELQFGNSERYHKGAGSRLTLSLRGSSYGSLMTAHGKYQIFANTGHFKGNVVAIKHVNKKRIELTRQVLFELKHMRDVQFNHLTRFIGACIDPPNICIVTEYCPRGSLQDILENDSINLDWMFRYSLINDLVKGMAFLHNSIISSHGSLKSSNCVVDSRFVLKITDYGLASFRSTAEPDDSHALYAKKLWTAPELLSGNPLPTTGMQKADVYSFGIILQEIALRSGPFYLEGLDLSPKEIVQKVRNGQRPYFRPSIDRTQLNEELVLLMERCWAQDPAERPDFGQIKGFIRRFNKEGGTSILDNLLLRMEQYANNLEKLVEERTQAYLEEKRKAEALLYQILPHSVAEQLKRGETVQAEAFDSVTIYFSDIVGFTALSAESTPMQVVTLLNDLYTCFDAIIDNFDVYKVETIGDAYMVVSGLPGRNGQRHAPEIARMALALLDAVSSFRIRHRPHDQLRLCIGVHTGPVCAGVVGLKMPRYCLFGDTVNTASRMESNGQALKIHVSSTTKDALDELGCFQLELRGDVEMKGKGKMRTYWLLGERKGPPGLL
With B1, the average phenotype was 0.01553 and 0.02954; the Lable result is listed as “LoF”.

B2: Trp42Arg: NPR2 protein-altering variant, expression construct transfected into HEK293 cells (protein)
chain: B1 chain with W20R, C935R
Regarding B2, the average phenotype came out at 0.0288 and the Lable result is recorded as “LoF”.

B3: Ser522Pro: NPR2 protein-altering variant, expression construct transfected into HEK293 cells (protein)
chain: B1 chain with S500P, C935R
Consider B3, for which the average phenotype amounted to 0.05673 and the Lable result is recorded as “LoF”.

B4: Glu389Asp: NPR2 protein-altering variant, expression construct transfected into HEK293 cells (protein)
chain: B1 chain with E367D, C935R
On to B4, for which the average phenotype is recorded as 0.07079 and the Lable result is on record as “LoF”.

B5: Leu1009Val: NPR2 protein-altering variant, expression construct transfected into HEK293 cells (protein)
chain: B1 chain with C935R, L987V
For B5, the average phenotype stood at 0.0847 and the Lable entry was “LoF”.

B6: Thr861Ile: NPR2 protein-altering variant, expression construct transfected into HEK293 cells (protein)
chain: B1 chain with T839I, C935R
With B6, the average phenotype is 0.07978 and 0.01124; the Lable result was “LoF”.

B7: Arg601Ser: NPR2 protein-altering variant, expression construct transfected into HEK293 cells (protein)
chain: B1 chain with R579S, C935R
For the molecule B7, the average phenotype was determined as 0.05949 and the Lable entry is given as “LoF”.

B8: Val965Asp: NPR2 protein-altering variant, expression construct transfected into HEK293 cells (protein)
chain: B1 chain with C935R, V943D
In the case of B8, the average phenotype was 0.0158 and the Lable entry is recorded as “LoF”.

B9: Lys629Arg: NPR2 protein-altering variant, expression construct transfected into HEK293 cells (protein)
chain: B1 chain with K607R, C935R
Consider B9, for which the average phenotype was 1.493 and the Lable entry was “GoF”.

B10: Val553Leu: NPR2 protein-altering variant, expression construct transfected into HEK293 cells (protein)
chain: B1 chain with V531L, C935R
Regarding B10, the average phenotype worked out at 1.515 and the Lable result is given as “GoF”.

B11: Thr297Met: NPR2 protein-altering variant, expression construct transfected into HEK293 cells (protein)
chain: B1 chain with T275M, C935R
As for B11, the average phenotype is on record as 0.03025 and the Lable entry is reported as “LoF”.

B12: Ile494Ser: NPR2 protein-altering variant, expression construct transfected into HEK293 cells (protein)
chain: B1 chain with I472S, C935R
In the case of B12, the average phenotype worked out at 0.03638 and the Lable entry was “LoF”.

B13: Arg562Gln: NPR2 protein-altering variant, expression construct transfected into HEK293 cells (protein)
chain: B1 chain with R540Q, C935R
With B13, the average phenotype is 1.554 and 1.629; the Lable entry is given as “GoF”.

B14: Ala48Ser: NPR2 protein-altering variant, expression construct transfected into HEK293 cells (protein)
chain: B1 chain with A26S, C935R
Take B14: the average phenotype came to 0.06785 and the Lable entry is reported as “LoF”.

B15: Gly209Val: NPR2 protein-altering variant, expression construct transfected into HEK293 cells (protein)
chain: B1 chain with G187V, C935R
For the molecule B15, the average phenotype was found to be 0.08861 and the Lable entry is listed as “LoF”.

B16: Gly917Arg: NPR2 protein-altering variant, expression construct transfected into HEK293 cells (protein)
chain: B1 chain with G895R, C935R
With B16, the average phenotype is reported as 0.01708 and the Lable entry was “LoF”.

B17: Lys1006Thr: NPR2 protein-altering variant, expression construct transfected into HEK293 cells (protein)
chain: B1 chain with C935R, K984T
As for B17, the average phenotype came to 0.0551 and the Lable entry was “LoF”.

B18: Glu77Lys: NPR2 protein-altering variant, expression construct transfected into HEK293 cells (protein)
chain: B1 chain with E55K, C935R
Turning to B18, the average phenotype turned out to be 0.04986 and the Lable entry is recorded as “LoF”.

B19: Leu956Gln: NPR2 protein-altering variant, expression construct transfected into HEK293 cells (protein)
chain: B1 chain with L934Q, C935R
As for B19, the average phenotype was determined as 0.02434 and the Lable entry is “LoF”.

B20: Pro301Ser: NPR2 protein-altering variant, expression construct transfected into HEK293 cells (protein)
chain: B1 chain with P279S, C935R
On to B20, for which the average phenotype is on record as 0.08478 and the Lable entry was “LoF”.

B21: Lys480Asn: NPR2 protein-altering variant, expression construct transfected into HEK293 cells (protein)
chain: B1 chain with K458N, C935R
Consider B21, for which the average phenotype is recorded as 1.689 and the Lable entry is on record as “GoF”.
